Results as given in paper PMC5449630.
Read-outs that look alike come from different tables or passages of the source.

B1: FAM-20p ssDNA (ssDNA)
DNA: TAGCACCTACCGATTGTATG
modifications: 3'-phosphate
B2: FAM-20p/20c blunt duplex (dsDNA)
DNA 1: TAGCACCTACCGATTGTATG
DNA 2: CATACAATCGGTAGGTGCTA
modifications: 3'-phosphate on strand 1; 5'-phosphate on strand 2
B3: FAM-20p/36c 5' overhang duplex (dsDNA)
DNA 1: TAGCACCTACCGATTGTATG
DNA 2: CGACACAAAAACGTATCATACAATCGGTAGGTGCTA
modifications: 3'-phosphate on strand 1; 5'-phosphate on strand 2

What was measured:
[1] = target: T1, mPNKP D170A (Mus musculus (murine), UniProt Q9JLV6 1-522, D170A); assay: EMSA
[2] = target: T1, mPNKP D170A; assay: EMSA; remark: listed apart in the source

T1 sequence (Q9JLV6 whole entry D170A): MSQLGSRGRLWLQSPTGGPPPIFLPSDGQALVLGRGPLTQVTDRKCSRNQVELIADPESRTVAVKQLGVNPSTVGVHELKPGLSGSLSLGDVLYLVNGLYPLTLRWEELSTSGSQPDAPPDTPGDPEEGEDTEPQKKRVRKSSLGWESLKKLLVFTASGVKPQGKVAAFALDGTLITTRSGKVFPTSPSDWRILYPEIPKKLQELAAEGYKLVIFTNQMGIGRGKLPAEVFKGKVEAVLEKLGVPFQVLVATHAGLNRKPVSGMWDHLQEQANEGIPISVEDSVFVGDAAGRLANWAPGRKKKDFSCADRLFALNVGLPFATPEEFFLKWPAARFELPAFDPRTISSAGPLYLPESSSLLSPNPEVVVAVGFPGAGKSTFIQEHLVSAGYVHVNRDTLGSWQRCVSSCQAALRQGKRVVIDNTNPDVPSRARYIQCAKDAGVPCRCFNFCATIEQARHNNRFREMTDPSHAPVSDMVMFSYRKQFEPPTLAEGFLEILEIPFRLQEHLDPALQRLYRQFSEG

| Binder | binding result [1] | binding result [2] |
| --- | --- | --- |
| B1 | binds | – |
| B2 | – | binds |
| B3 | – | binds |
